Measured values from patent US20260265360A1, “USE OF ANTI-FAM19A5 ANTAGONISTS FOR TREATING HEARING DISORDERS” (NEURACLE SCIENCE CO., LTD., priority 2023, published 2026).

System: noise-induced hearing loss mouse model
Assay: Noise-induced hearing loss mouse model, first antibody dose 2 hours post noise exposure
Format: in vivo
Settings: first dose 2 hours post noise
Protocol: FIGS. 13A, 13B, 13C, 13D, and 13E show the therapeutic effect of FAM19A5 antagonists (administered 2 hours after noise induction) on auditory brainstem response (ABR) threshold in a noise-induced hearing loss mouse model. The overall design was similar as that provided in FIG. 6A, except that the antibodies were administered to the animals at 2 hours post noise induction. FIG. 13A provides the results before noise exposure. FIG. 13B provides the results at one day post noise exposure. FIG. 13C provides the results at two weeks post noise exposure. FIG. 13D provides the results at four weeks post noise exposure. FIG. 13E provides the results at eight weeks post noise exposure. ABR threshold was measured at a frequency ranging from 4 kHz to 64 kHz.
FIGS. 14A and 14B show the effect of FAM19A5 antagonists on ABR I/O function in a noise-induced hearing loss mouse model. FIG. 14A provides comparisons of wave I amplitude (1st graph) and wave IV amplitude (2nd graph) in animals treated with the anti-FAM19A5 antibody (square), before noise group (triangle) or control IgG antibody (circle) 2 weeks after noise exposure. FIG. 14B provides comparisons of wave I amplitude (1st graph) and wave IV amplitude (2nd graph) in animals treated with the anti-FAM19A5 antibody (square), before noise group (triangle) or control IgG antibody (circle) 4 weeks after noise exposure. Tone bursts were measured across 0 and 90 dB.
Next, to assess whether the timing of the anti-FAM19A5 antibody administration has an effect, the above-described noise-induced hearing loss mouse model was used again. Again, to induce hearing loss, the animals were exposed to a temporary threshold shift (TTS) of 105 decibels for 30 minutes. An anti-FAM19A5 antibody (1-30 antibody) or a control human IgG antibody was intravenously administered to the animals once weekly for 5 total administration (30 mg/kg per dose). […] Hearing loss was assessed (e.g., by measuring ABR threshold, DPOAE threshold, and/or DPOAE amplitude) in the animals prior to the noise exposure and then again at one day, two weeks, and four weeks post noise exposure.

[1] = 2 and 4 weeks after noise, particularly at higher tone-burst levels

B1: 1-30: anti-FAM19A5 antibody, de-immunized variant of 3-2; VH SEQ ID NO: 235, VL SEQ ID NO: 240 (antibody, V domains shown)
VH: AVTLDESGGGLQTPGGALRLSCKASGFDFESFNMFWVRQAPGKGLEYVSQISSSEEDENYAPAVKGRATISRDNGQSTLYLQMNSLRAEDTGTYYCAKSSYDCPYGHCSSGVDSAGEIDAWGHGTEVIVSS
VL: ALTQPSSVSANPGETVKITCSGGGSEEEQYYYGWYQQKPGSAPVTLIYQDEERPSDIPSRFSGSTSGSTATLTITGVQAGDEADYYCGSWDSEDEDHFGAGTTLTVL
modifications: Low-PI VH, 1-30 VH, 1-17 VH, 1-32 VH, 4-11 VH, 6-10 VH; 1-30 VL
With B1 the “ABR threshold vs control antibody” value (30 mg/kg i.v. weekly x5) was “did not appear to be any significant differences”, the “Wave I amplitude vs control antibody” value [1] was “noticeable differences were observed” and the “Wave IV amplitude vs control antibody” value [1] was “noticeable differences were observed”.
